Experiments:
[1] = Fluorescence (CPM) thermostability assay of β2AR constructs; assay type: physicochemical; details: 100 μM timolol; for thermostability: less stable relative to β2AR-T4L: decrease relative to β2AR-T4L; for thermostability: more stable than β2AR-T4L: increase relative to β2AR-T4L
Method: N-[4-(7-diethylamino-4-methyl-3-coumarinyl)phenyl]maleimide (CPM) dye was purchased from Invitrogen and dissolved in DMSO (Sigma) at 4 mg/mL as the stock solution for future use. The stock solution was kept at −80° C. and was diluted 1:40 in dye dilution solution (10 mM buffer, 500 mM NaCl, 10% glycerol, 0.025% DDM and 0.005% CHS) before use. The thermal denaturation assay was performed with total volume of 200 μL sample in a quartz fluorometer cuvette (Starna Cells, Inc., Atascadero, Calif.). Receptor (4 μg) was diluted in the appropriate buffer solution to a final volume of 200 μL, 5 μL of the diluted dye was added to the protein solution and incubated for 30 min at 4° C. The mixed solution was transferred to the cuvette and the data were collected by a Cary Eclipse spectrofluorometer (Varian, USA) with a temperature ramping rate at 2° C./min. The excitation wavelength was 387 nm and the emission wavelength was 463 nm. All assays were performed over a temperature range starting from 20° C. and 95° C. The stability data were processed with GraphPad Prism program (GraphPad Prism, Graphpad Software, San Diego, Calif., USA). In order to determine the melting temperature (Tm), a Boltzmann sigmoidal equation was used to fit to the data.
The thermostability of the different β2AR constructs was then evaluated. Assays were carried out in the presence of 100 μM timolol to maintain receptor stability during heating. […] We thus selected β2AR-BRIL and β2AR rubredoxin for further crystallization studies.

[2] = Size exclusion chromatography (SEC) of purified S1P1-fusion partner proteins; assay type: physicochemical; details: presence or absence of ligand
Method: S1P1-fusion partner proteins (“S1P1 fusion receptors”) were purified from membranes by dodecyl-maltoside (DDM) extraction followed by immobilized metal affinity chromatography (IMAC) on Talon resin (Clontech) as detailed below. Frozen cellular membranes were thawed by adding room temperature lysis buffer to a total volume of 25 mL. The S1P1 receptor antagonist W146 was added to a final concentration of 125 μM. The mixture was allowed to incubate at room temperature for 1 hour to ensure complete saturation of the receptor with ligand followed by addition of iodoacetamide to a concentration of 1 mg/mL and an additional 1 hour incubation at 4° C. Receptor solubilization was initiated by addition of detergent and cholesteryl hemisuccinate (CHS) to achieve a final concentration of 0.5% DDM 0.1% CHS. The solubilization buffer consisted of the following mixture: 50 mM Hepes pH 7.5; 800 mM NaCl; 30 mM Imidazole; 0.1% DDM 0.02% CHS; 125 μM W146. […]
Eluted proteins were analyzed by size-exclusion chromatography (SEC) followed by SDS-PAGE. […] SEC fractions corresponding to S1P1-fusion partner proteins were evaluated separated by SDS-PAGE on a 10% gel and stained, confirming that each S1P1-fusion partner protein could be purified to near-homogeneity (data not shown).

Row | Substance | thermostability: less stable relative to β2AR-T4L [1] | thermostability: more stable than β2AR-T4L [1] | also measured
1 | β2AR-C-term T4L: β2-adrenergic receptor fused with T4 lysozyme C-terminal fragment, SEQ ID NO: 9 | ~4 °C | – | –
2 | β2AR-BRIL: β2-adrenergic receptor with cytochrome b562 RIL replacing the third intracellular loop, SEQ ID NO: 10 | – | approximately 8 °C | –
3 | β2AR-flavodoxin: β2-adrenergic receptor fused with flavodoxin in place of T4L, SEQ ID NO: 13 | about 9 °C | – | –
4 | S1P1-Bril: S1P1 receptor with cytochrome b562 RIL replacing part of ICL3, SEQ ID NO: 2 | – | – | stability by SEC (in words) [2]: stable in the presence or absence of ligand
5 | β2AR xylanase: β2-adrenergic receptor fused with xylanase, SEQ ID NO: 12 | – | about 3 °C | –
6 | 132AR-rubredoxin: β2-adrenergic receptor fused with rubredoxin, SEQ ID NO: 11 | – | approximately 8 °C | –
